This passage reports Kd results from article PMC10202384.

The target in the assay is recombinant full-length SARS-CoV-2 spike protein with a C-terminal 8x His-tag (SARS-CoV-2) (UniProt P0DTC2). Nature of the assay: BLI; spike with C-terminal 8x His-tag (0.35 μM) immobilised on nickel nitrilotriacetic acid biosensors; αIIbβ3 in solution, zero to 0.51 μM (68 to 512 nM); 20 mM tris pH 7.4, 137 mM NaCl, 1 mM MgCl2, 1 mM MnCl2, 1 mM CaCl2, 50% glycerol plus 1X Octet Kinetics Buffer; 25 °C; global fit.

On to “platelet-derived purified human αIIbβ3 protein (from UniProt P05106 27-788) (complex)”, for which the equilibrium dissociation constant (Kd) worked out at 0.047 µM.
